# Substitutions are numbered along the chain they refer to. Where two headings read alike, the source gives them in different places.
# T1: YvoA wild-type (Bacillus subtilis, UniProt O34817 1-243)
# T1 sequence: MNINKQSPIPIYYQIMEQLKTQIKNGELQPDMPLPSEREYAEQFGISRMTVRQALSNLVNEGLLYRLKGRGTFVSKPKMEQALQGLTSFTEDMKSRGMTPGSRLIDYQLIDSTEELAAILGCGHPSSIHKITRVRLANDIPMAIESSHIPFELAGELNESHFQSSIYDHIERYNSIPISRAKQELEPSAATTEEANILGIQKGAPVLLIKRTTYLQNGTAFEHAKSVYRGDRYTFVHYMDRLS
# T2: YvoA-E61C-L242C (Bacillus subtilis, UniProt O34817 1-243, E61C;L242C)
# T2 sequence: T1 sequence with E61C, L242C
# T3: YvoA-K24C-G97C (Bacillus subtilis, UniProt O34817 1-243, K24C;G97C)
# T3 sequence: T1 sequence with K24C, G97C
# B1: YvoA operator dsDNA (18mer) (dsDNA)
# DNA 1: ATTGGTATAGATCACTAG
# DNA 2: CTAGTGATCTATACCAAT
# Tests used:
# YvoA wild-type [1] = molecular target: T1, YvoA wild-type; test: ITC
# YvoA-E61C-L242C = molecular target: T2, YvoA-E61C-L242C; test: analytical gel filtration
# YvoA-K24C-G97C = molecular target: T3, YvoA-K24C-G97C; test: analytical gel filtration
# YvoA wild-type [2] = molecular target: T1, YvoA wild-type; test: ITC; remark: listed apart in the source
binder,measurement,setting,value
B1,Kd,YvoA wild-type [1],2.9 nM
same,binding result,YvoA-E61C-L242C,binds
same,binding result,YvoA-K24C-G97C,binds
same,Kd,YvoA wild-type [2],131 nM

# — article PMC2853113
